Test results from patent US20170305975A1 (PROCLARA BIOSCIENCES, published 2017).
Where two headings read alike, the source gives them in different places.

Key:
[1] = target: T1, amyloid-β 1-42 fibers (fAβ42) (human, UniProt P05067 672-713); test: cell-based or functional assay
[2] = target: T1, amyloid-β 1-42 fibers (fAβ42); test: SPR on Aβ fibrils, 25° C.
[3] = target: T1, amyloid-β 1-42 fibers (fAβ42); test: SPR, 4 µM rs-g3p(N1N2) on Aβ fibrils
[4] = target: T1, amyloid-β 1-42 fibers (fAβ42); test: SPR on Aβ fibrils, analyte preheated at 37° C.
[5] = target: T1, amyloid-β 1-42 fibers (fAβ42); test: SPR, Aβ42 fibers immobilized on a CM3 surface, about 2 µM analyte at 5 µl/min
[6] = target: T1, amyloid-β 1-42 fibers (fAβ42); test: competition with labeled M13 for binding to Aβ, 45 minutes at 37 °C; phage with or without pre-activation at 50 °C for 1.5 hours
[7] = target: T1, amyloid-β 1-42 fibers (fAβ42)
[8] = target: T1, amyloid-β 1-42 fibers (fAβ42); test: SPR on Aβ fibrils
[9] = target: T1, amyloid-β 1-42 fibers (fAβ42); test: SPR, 10^14 phage/mL over immobilized fAβ
[10] = target: T1, amyloid-β 1-42 fibers (fAβ42); test: SPR, calculated from the data of FIG. 3A
[11] = target: tau fibers (ftau); test: SPR, Construct 4 on ftau
[12] = target: T1, amyloid-β 1-42 fibers (fAβ42); test: competition with M13-Alexa488 for fAβ, fiber sedimentation assay

T1 sequence (P05067 672-713 limits assumed): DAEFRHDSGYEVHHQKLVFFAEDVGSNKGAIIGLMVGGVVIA

B1: recombinant soluble N1N2 fragment of g3p, rs-g3p(N1N2) (Construct 3) (other)
chain: MAETVESCLAKSHTENSFTNVWKDDKTLDRYANYEGCLWNATGVVVCTGDETQCYGTWVPIGLAIPENEGGGSEGGGSEGGGSEGGGTKPPEYGDTPIPGYTYINPLDGTYPPGTEQNPANPNPSLEESQPLNTFMFQNNRFRNRQGALTVYTGTVTQGTDPVKTYYQYTPVSSKAMYDAYWNGKFRDCAFHSGFNEDLFVCEYQGQSSDLPQPPVNAPSGHHHHHH
notes: also called monomer; monomeric g3p
[1]
  IC50 of inhibition of Aβ42 fiber formation, ThT fluorescence (10 µM Aβ42 monomers, 37° C., 3 days): ~20 nM
[2]
  Kd: 150 nM
  koff: 0.00024 s⁻¹
  kon: 1500 M⁻¹ s⁻¹
[3]
  Kd: ~160 nM
[4]
  Kd: 50 nM
  koff: 0.0002 s⁻¹
  kon: 4100 M⁻¹ s⁻¹
[5]
  Kd: ~150 nM

B2: phage fd (wild type) (other)
chain: AETVESCLAKPHTENSFTNVWKDDKTLDRYANYEGCLWNATGVVVCTGDETQCYGTWVPIGLAIPENEGGGSEGGGSEGGGSEGGGTKPPEYGDTPIPGYTYINPLDGTYPPGTEQNPANPNPSLEESQPLNTFMFQNNRFRNRQGALTVYTGTVTQGTDPVKTYYQYTPVSSKAMYDAYWNGKFRDCAFHSGFNEDPFVCEYQGQSSDLPQPPVNAGGGSGGGSGGGSEGGGSEGGGSEGGGSEGGGSGGGSGSGDFDYEKMANANKGAMTENADENALQSDAKGKLDSVATDYGAAIDGFIGDVSGLANGNGATGDFAGSNSQMAQVGDGDNSPLMNNFRQYLPSLPQSVECRPYVFGAGKPYEFSIDCDKINLFRGVFAFLLYVATFMYVFSTFANILRNKES
[6]
  binding result: binds

B3: M13 phage (Construct 1) (other)
chain: AETVESCLAKPHTENSFTNVWKDDKTLDRYANYEGCLWNATGVVVCTGDETQCYGTWVPIGLAIPENEGGGSEGGGSEGGGSEGGGTKPPEYGDTPIPGYTYINPLDGTYPPGTEQNPANPNPSLEESQPLNTFMFQNNRFRNRQGALTVYTGTVTQGTDPVKTYYQYTPVSSKAMYDAYWNGKFRDCAFHSGFNEDPFVCEYQGQSSDLPQPPVNAGGGSGGGSGGGSEGGGSEGGGSEGGGSEGGGSGGGSGSGDFDYEKMANANKGAMTENADENALQSDAKGKLDSVATDYGAAIDGFIGDVSGLANGNGATGDFAGSNSQMAQVGDGDNSPLMNNFRQYLPSLPQSVECRPFVFGAGKPYEFSIDCDKINLFRGVFAFLLYVATFMYVFSTFANILRNKES
[7]
  Kd: ~7 nM
[8]
  Kd: 3.59 nM
  koff: 9.2e-06 s⁻¹
  kon: 2600 M⁻¹ s⁻¹
[9]
  Kd: ~4 nM

B4: M13 phage (construct not stated) (other)
chain: AETVESCLAKPHTENSFTNVWKDDKTLDRYANYEGCLWNATGVVVCTGDETQCYGTWVPIGLAIPENEGGGSEGGGSEGGGSEGGGTKPPEYGDTPIPGYTYINPLDGTYPPGTEQNPANPNPSLEESQPLNTFMFQNNRFRNRQGALTVYTGTVTQGTDPVKTYYQYTPVSSKAMYDAYWNGKFRDCAFHSGFNEDPFVCEYQGQSSDLPQPPVNAGGGSGGGSGGGSEGGGSEGGGSEGGGSEGGGSGGGSGSGDFDYEKMANANKGAMTENADENALQSDAKGKLDSVATDYGAAIDGFIGDVSGLANGNGATGDFAGSNSQMAQVGDGDNSPLMNNFRQYLPSLPQSVECRPFVFSAGKPYEFSIDCDKINLFRGVFAFLLYVATFMYVFSTFANILRNKES
notes: also called wild type M13; labeled M13
[10]
  Kd: 3.59 nM

B5: rs-g3p(N1N2)-hIgG4-Fc fusion protein (Construct 4) (Fc fusion)
chain: MAETVESCLAKPHTENSFTNVWKDDKTLDRYANYEGCLWNATGVVVCTGDETQCYGTWVPIGLAIPENEGGGSEGGGSEGGGSEGGGTKPPEYGDTPIPGYTYINPLDGTYPPGTEQNPANPNPSLEESQPLNTFMFQNNRFRNRQGALTVYTGTVTQGTDPVKTYYQYTPVSSKAMYDAYWNGKFRDCAFHSGFNEDPFVCEYQGQSSDLPQPPVNAGGGSGGGSGGGSEGGGSEGGGSEGGGSEGGGSGGGSGSGAMVRSPPCPSCPAPEFLGGPSVFLFPPKPKDTLMISRTPEVTCVVVDVSQEDPEVQFNWYVDGVEVHNAKTKPREEQFNSTYRVVSVLTVLHQDWLNGKEYKCKVSNKGLPSSIEKTISKAKGQPREPQVYTLPPSQEEMTKNQVSLTCLVKGFYPSDIAVEWESNGQPENNYKTTPPVLDSDGSFFLYSRLTVDKSRWQEGNVFSCSVMHEALHNHYTQKSLSLSPGK
notes: also called rs-g3p(N1N2)-Ig fusion; bivalent rs-g3p(N1N2)-Ig fusion
[2]
  Kd: 7.32 nM
  koff: 0.000128 s⁻¹
  kon: 17500 M⁻¹ s⁻¹
[11]
  Kd: 62.9 nM

B6: rs-g3p(N1N2)-hIgG4-Fc fusion protein (Construct 5) (Fc fusion)
chain: MAETVESCLAKPHTENSFTNVWKDDKTLDRYANYEGCLWNATGVVVCTGDETQCYGTWVPIGLAIPENEGGGSEGGGSEGGGSEGGGTKPPEYGDTPIPGYTYINPLDGTYPPGTEQNPANPNPSLEESQPLNTFMFQNNRFRNRQGALTVYTGTFTQGTDPVKTYYQYTPVSSKAMYDAYWNGKFRDCAFHSGFNEDPFVCEYQGQSSDLPQPPVNAGGGSGGGSGGGSEGGGSEGGGSEGGGSEGGGSGGGSGSGAMVRSPPCPSCPAPEFLGGPSVFLFPPKPKDTLMISRTPEVTCVVVDVSQEDPEVQFNWYVDGVEVHNAKTKPREEQFNSTYRVVSVLTVLHQDWLNGKEYKCKVSNKGLPSSIEKTISKAKGQPREPQVYTLPPSQEEMTKNQVSLTCLVKGFYPSDIAVEWESNGQPENNYKTTPPVLDSDGSFFLYSRLTVDKSRWQEGNVFSCSVMHEALHNHYTQKSLSLSPGK
[2]
  Kd: 10.9 nM
  koff: 0.000166 s⁻¹
  kon: 15200 M⁻¹ s⁻¹

B7: If1N1N2 g3p (without Fc domain) (other)
chain: ATTDAECLSKPAFDGTLSNVWKEGDSRYANFENCIYELSGIGIGYDNDTSWNGHWTPVRAADGSGNGGDDNSSGGGSNGDSGNNSTPDTVTPGQTVNLPSDLSTLSIPANVVKSDSIGSQFSLYTNASCTMCSGYYLSNNADSIAIANITETVKADYNQPDMWFEQTDSDGNHVKILQNSYKAVSYNVESKQSDVNNPTYINYSYSVNVKQVSYDTSNVCIMNWETFQNKCDASRAVLITDTVTPSYSRNITIQSNINYQGSNGSGGSGGSGGSG
[12]
  fold better binding than M13 N1N2 g3p: ~4 fold
